This note sets out measurements from patent publication US20160304584, “MAFB MUTANTS AND USES THEREOF” (INSERM (INSTITUT NATIONAL DE LA SANTÉ ET DE LA …, published 2016).

The target of series [1] is MafB (E269R) full-length with c-Fos (UniProt P54841;P01101 P54841:1-323,P01101:1-380, MafB E269R). Description: cell_activity; luciferase, HEK293, with c-Fos. As for the experimental part: HEK293 cells were grown in Dulbecco's modified eagle's medium supplemented with 10% fetal bovine serum in six-well plates to reach 60-80% confluence at the time of transfection. DNA was transfected by calcium phosphate precipitation procedure as previously described (Sieweke et al., 1996). pTK81 luciferase reporter constructs (200 ng) (Promega) containing three multimerized T-MARE(alpha) ([…] CA […]), T-MARE(beta) ([…] CA […]), or T-MARE (y) ([…] […]) were cotransfected with 200 ng of Rc/CMV (Invitrogen) constructs driving the expression of wt and mutant full-length MafB with or without 200 ng of Rc/CMV construct driving the expression of c-Fos or no transgene (vector control). Assays were performed in duplicate. The transfection efficiency was normalized by assaying for β-galactosidase activity from a cotransfected CVM-LacZ construct, and luciferase activity was analyzed as previously described (Sieweke et al., 1996). […] The transfection efficiency was normalized, by assaying for β-galactosidase activity from a cotransfected CVM-LacZ construct, and luciferase activity was analyzed using a dual-luciferase reporter assay system (Promega, Cat: E1910) according to the manufacturer's recommendations.
Chain of MafB (E269R) full-length with c-Fos (P54841 whole entry E269R, chain 1 of 2): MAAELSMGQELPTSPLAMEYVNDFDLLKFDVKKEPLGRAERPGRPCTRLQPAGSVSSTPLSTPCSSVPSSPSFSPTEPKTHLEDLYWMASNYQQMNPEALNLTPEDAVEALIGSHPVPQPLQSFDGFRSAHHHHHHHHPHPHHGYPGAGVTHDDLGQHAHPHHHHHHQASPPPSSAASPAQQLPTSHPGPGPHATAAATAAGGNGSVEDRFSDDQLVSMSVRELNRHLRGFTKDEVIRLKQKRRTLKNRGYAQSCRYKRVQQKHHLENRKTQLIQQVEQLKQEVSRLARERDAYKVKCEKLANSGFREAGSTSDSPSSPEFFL
Chain of MafB (E269R) full-length with c-Fos (P01101 whole entry, stated change not applied, chain 2 of 2): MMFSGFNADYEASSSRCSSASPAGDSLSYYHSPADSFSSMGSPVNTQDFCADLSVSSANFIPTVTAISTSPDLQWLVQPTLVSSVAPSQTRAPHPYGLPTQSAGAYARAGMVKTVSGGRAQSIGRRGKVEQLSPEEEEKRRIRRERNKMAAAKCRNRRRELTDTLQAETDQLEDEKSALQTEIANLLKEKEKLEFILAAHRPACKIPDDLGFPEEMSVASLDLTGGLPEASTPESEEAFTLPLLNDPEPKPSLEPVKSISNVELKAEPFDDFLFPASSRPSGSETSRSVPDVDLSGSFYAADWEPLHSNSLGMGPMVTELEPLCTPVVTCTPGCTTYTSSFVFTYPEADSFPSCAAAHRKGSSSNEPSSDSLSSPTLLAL

The target of series [2] is MafB (wt) fragment 211-305 C298S, homodimer (Mus musculus, UniProt P54841 SEQ:211-305, C298S). Description: structure; 2.9 A crystal structure; 50 mM MgCl2 in complex buffer. Particulars: chain copies: 2. Here is the method: The C-terminal region of MafB from Mus musculus (residues 211-305, C298S) was purified as previously described (Textor et al., 2007). Homodimeric MafB₂ complexes were dialyzed overnight into 30 mM Tris-HCl (pH 7.3), 80 mM NaCl, 50 mM MgCl₂ and 3 mM β-mercaptoethanol at room temperature in the presence of an oligonucleotide encompassing the T-MARE-binding site (forward: […] (SEQ ID NO:3); reverse: […] (SEQ ID NO:4), METABION). The protein-DNA complex was further purified by size exclusion chromatography on a Superdex-75 (16/60) column (GE), equilibrated with the dialysis buffer. The pooled peak fractions corresponding to the (MafB)₂/T-MARE complex were analyzed by SDS-PAGE and native PAGE gels and concentrated to 5 mg/mL, using a centrifugal concentrator with a polyethersulfone membrane with a 10,000 MWCO (VIVASPIN, Sartorius Stedim Biotech). Crystallization drops of 400 nL volume, using a 1:1 protein/mother liquor ratio, were set up in 96-well sitting-drop plates and allowed to equilibrate at 19° C. Diffracting crystals grew in the presence of 0.1 M Na-citrate (pH 5.0), 15% [w/v] PEG-4000, 5% [v/v] PEG-400, and 0.1 M MgCl₂.
Chain of MafB (wt) fragment 211-305 C298S, homodimer (P54841 211-305 C298S): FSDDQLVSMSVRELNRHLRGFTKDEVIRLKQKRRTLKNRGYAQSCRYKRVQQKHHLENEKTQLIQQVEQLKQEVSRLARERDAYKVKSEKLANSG

Series [3] addresses T1, MafB (wt)/c-Fos heterodimer (UniProt P54841;P01101 P54841:211-305,P01101:138-200). Kind of series: EMSA; strongly preferred over homodimer. Particulars: label: 32P. As for the experimental part:
(§1) Double-stranded synthetic oligonucleotides corresponding to the T-MARE(a) ([…]) (SEQ ID NO:5), to T-MARE(beta) ([…]) (SEQ ID NO:6) or to T-MARE(y) ([…]) (SEQ ID NO:7) sites were incubated with Klenow fragment DNA polymerase in the presence of [α³²P][…] and purified on Qiaquick Spin Columns (Qiagen). Increasing amount (0.25 to 64 pmol) of recombinant c-Fos and recombinant protein (4 pmol) of MafB (wt) or MafB (E269R) and MafB (V277N) mutants were incubated with 0.05 ng of probe in 20 μL of binding reaction buffer (20 mM Tris-HCl (pH 7.5), 100 mM KCl, 0.1 mM EDTA, 5% glycerol, 0.1% Triton X-100, 0.02% BSA, […] poly d[I-C]) for 20 min. Complexes formed were resolved on a 6% polyacrylamide (acrylamide/bisacrylamide ratio, 29:1) non-denaturating gel (Bio-Rad) in 0.5% Tris-glycine. Gels were dried and autoradiographed at −80° C.

The target of series [4] is MafB (V277N)/c-Fos heterodimer (UniProt P54841;P01101 P54841:211-305,P01101:138-200, MafB V277N). Description: EMSA; binding unchanged versus wt. Particulars: label: 32P. Here is the method:
as §1

Series [5] addresses MafB (E269R)/c-Fos heterodimer (UniProt P54841;P01101 P54841:211-305,P01101:138-200, MafB E269R). Kind of series: EMSA; exclusive heterodimer even at residual c-Fos. Particulars: label: 32P. Here is the method: as §1
Background: A gel shift assay detects complexes by their altered migration in electrophoresis.

The target of series [6] is T2, MafB (wt) homodimer (UniProt P54841 SEQ:211-305). Description: EMSA; only homodimer bound. Particulars: chain copies: 2; label: 32P. As for the experimental part: as §1
T2 sequence (P54841 211-305): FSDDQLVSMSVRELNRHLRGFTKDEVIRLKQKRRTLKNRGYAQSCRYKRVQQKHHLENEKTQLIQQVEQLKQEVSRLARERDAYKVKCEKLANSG
Series [7] deals with MafB (V277N) homodimer (UniProt P54841 SEQ:211-305, V277N). Kind of series: EMSA; no enhanced site selection compared with wt. The following applies: chain copies: 2; label: 32P. Here is the method:
as §1

Series [8] deals with T1, MafB (wt)/c-Fos heterodimer. Description: EMSA; no significant heterodimer detected. Particulars: label: 32P. Here is the method: as §1
The target is the same in series [9]. Kind of series: EMSA; comparable to homodimer at equimolar ratio; favoured with excess c-Fos. The following applies: label: 32P. As for the experimental part: as §1
Series [10] has as its target T2, MafB (wt) homodimer. Description: EMSA; comparable to heterodimer at equimolar c-Fos; favoured with excess MafB. Particulars: chain copies: 2; label: 32P. As for the experimental part:
as §1

T1 sequence (P54841 211-305, chain 1 of 2): as the sequence (P54841 211-305) above
T1 sequence (P01101 138-200, chain 2 of 2): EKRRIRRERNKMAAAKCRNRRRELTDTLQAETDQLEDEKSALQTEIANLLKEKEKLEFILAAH
Chain of MafB (E269R)/c-Fos heterodimer (P54841 211-305 E269R, chain 1 of 2): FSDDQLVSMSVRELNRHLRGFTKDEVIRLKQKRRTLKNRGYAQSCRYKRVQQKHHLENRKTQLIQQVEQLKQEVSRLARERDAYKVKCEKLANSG
Chain of MafB (E269R)/c-Fos heterodimer (P01101 138-200, stated change not applied, chain 2 of 2): as the sequence (P01101 138-200, chain 2 of 2) above
Chain of MafB (V277N) homodimer (P54841 211-305 V277N): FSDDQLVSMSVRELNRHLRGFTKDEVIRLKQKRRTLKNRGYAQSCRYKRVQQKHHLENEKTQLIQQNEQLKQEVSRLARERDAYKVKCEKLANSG
Chain of MafB (V277N)/c-Fos heterodimer (P54841 211-305 V277N, chain 1 of 2): as the sequence (P54841 211-305 V277N) above
Chain of MafB (V277N)/c-Fos heterodimer (P01101 138-200, stated change not applied, chain 2 of 2): as the sequence (P01101 138-200, chain 2 of 2) above

B1: T-MARE(beta) x3 reporter (dsDNA)
DNA 1: TCGACCTCCCCTCCTATGAGTCAGCAATTCTCTCGAGCTCCCCTCCTATGAGTCAGCAATTCTCTCGAGCTCCCCTCCTATGAGTCAGCAATTCTCGTCGACCC
DNA 2: GGGTCGACGAGAATTGCTGACTCATAGGAGGGGAGCTCGAGAGAATTGCTGACTCATAGGAGGGGAGCTCGAGAGAATTGCTGACTCATAGGAGGGGAGGTCGA
As for B1, the activity in series [1] was determined as 5 fold vs wt.

B2: T-MARE 20-bp (dsDNA)
DNA 1: TAATTGCTGACTCAGCAATT
DNA 2: TAATTGCTGAGTCAGCAATT
For B2, the binding result in series [2] is recorded as “binds”.

B3: T-MARE(beta) (dsDNA)
DNA 1: TCGTCCCCTCCTATGAGTCAGCAATTCTC
DNA 2: GAGAATTGCTGACTCATAGGAGGGGACGA
Take B3: the binding result in [3], in series [4] and in series [5] was “binds” throughout.

B4: T-MARE(gamma) (dsDNA)
DNA 1: TCGTCCCTTATGCCTACTAGGCAATTCTC
DNA 2: GAGAATTGCCTAGTAGGCATAAGGGACGA
Regarding B4, the binding result in [6] is “binds”; in [7], “binds”; in [8] it was “no binding”.

B5: T-MARE(alpha) (dsDNA)
DNA 1: TCGTCCCTTATGCTGACTCAGCAATTCTC
DNA 2: GAGAATTGCTGAGTCAGCATAAGGGACGA
B5: the binding result in [9] and in series [10] was “binds” throughout.
